In US20230159662A1 (Kyowa Kirin, published 2023):
Positions count from the first letter of the chain named. In names and notes the source's numbering stands.

B1: human IgG1 anti-human CCR4 antibody (KM2160), K288N/A330S/P396L (antibody)
heavy: EVQLVESGGDLMKPGGSLKISCAASGFIFSNYGMSWVRQTPDMRLEWVATISSASTYSYYPDSVKGRFTISRDNAENSLYLQMNSLRSEDTGIYYCGRHSDGNFAFGYWGRGTLVTVSAASTKGPSVFPLAPSSKSTSGGTAALGCLVKDYFPEPVTVSWNSGALTSGVHTFPAVLQSSGLYSLSSVVTVPSSSLGTQTYICNVNHKPSNTKVDKKVEPKSCDKTHTCPPCPAPELLGGPSVFLFPPKPKDTLMISRTPEVTCVVVDVSHEDPEVKFNWYVDGVEVHNANTKPREEQYNSTYRVVSVLTVLHQDWLNGKEYKCKVSNKALPSPIEKTISKAKGQPREPQVYTLPPSRDELTKNQVSLTCLVKGFYPSDIAVEWESNGQPENNYKTTPLVLDSDGSFFLYSKLTVDKSRWQQGNVFSCSVMHEALHNHYTQKSLSLSPGK
light: DVLMTQTPLSLPVSLGDQASISCRSSRNIVHINGDTYLEWYLQRPGQSPKLLIYKVSNRFSGVPDRFSGSGSGTDFTLKISRVEAEDLGVYYCFQGSLLPWTFGGGTRLEIRRTVAAPSVFIFPPSDEQLKSGTASVVCLLNNFYPREAKVQWKVDNALQSGNSQESVTEQDSKDSTYSLSSTLTLSKADYEKHKVYACEVTHQGLSSPVTKSFNRGEC
B2: human IgG1 anti-human CCR4 antibody (KM2160), K334E/T359N/T366S (antibody)
heavy: B1 heavy with N290K, S332A, K336E, T361N, T368S, L398P
light: B1 light
B3: human IgG1 anti-human CCR4 antibody (KM2160), G316D/A378V/D399E (antibody)
heavy: B1 heavy with N290K, G318D, S332A, A380V, L398P, D401E
light: B1 light

Each binder was assayed against human CD16a (Val type) stably expressed on NK-92 cells (NK-92/CD16 transfectant) (human, UniProt P08637 17-254) (assay: cell-based or functional assay).
human CD16a (Val type) stably expressed on NK-92 cells (NK-92/CD16 transfectant), sequence (P08637 17-254 F176V): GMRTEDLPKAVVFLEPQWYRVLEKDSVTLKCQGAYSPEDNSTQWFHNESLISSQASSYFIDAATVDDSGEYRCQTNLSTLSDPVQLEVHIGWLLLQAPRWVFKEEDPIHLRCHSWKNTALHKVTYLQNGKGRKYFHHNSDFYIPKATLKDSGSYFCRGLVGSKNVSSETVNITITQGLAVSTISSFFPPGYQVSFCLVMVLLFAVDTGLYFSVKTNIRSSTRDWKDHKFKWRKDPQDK

relative ADCC activity (AAA = 100)	Binder
-131 relative, AAA at 0.1 µg/mL = 100	B1
-110 relative, AAA at 0.1 µg/mL = 100	B2
-38 relative, AAA at 0.1 µg/mL = 100	B3
